Measured values from patent US20230331779A1 (SHAANXI MICOT TECHNOLOGY, published 2023).

Molecular target: T1, calcium-sensing receptor (CaSR)
T1 sequence (P41180 whole entry, species assumed, looked up): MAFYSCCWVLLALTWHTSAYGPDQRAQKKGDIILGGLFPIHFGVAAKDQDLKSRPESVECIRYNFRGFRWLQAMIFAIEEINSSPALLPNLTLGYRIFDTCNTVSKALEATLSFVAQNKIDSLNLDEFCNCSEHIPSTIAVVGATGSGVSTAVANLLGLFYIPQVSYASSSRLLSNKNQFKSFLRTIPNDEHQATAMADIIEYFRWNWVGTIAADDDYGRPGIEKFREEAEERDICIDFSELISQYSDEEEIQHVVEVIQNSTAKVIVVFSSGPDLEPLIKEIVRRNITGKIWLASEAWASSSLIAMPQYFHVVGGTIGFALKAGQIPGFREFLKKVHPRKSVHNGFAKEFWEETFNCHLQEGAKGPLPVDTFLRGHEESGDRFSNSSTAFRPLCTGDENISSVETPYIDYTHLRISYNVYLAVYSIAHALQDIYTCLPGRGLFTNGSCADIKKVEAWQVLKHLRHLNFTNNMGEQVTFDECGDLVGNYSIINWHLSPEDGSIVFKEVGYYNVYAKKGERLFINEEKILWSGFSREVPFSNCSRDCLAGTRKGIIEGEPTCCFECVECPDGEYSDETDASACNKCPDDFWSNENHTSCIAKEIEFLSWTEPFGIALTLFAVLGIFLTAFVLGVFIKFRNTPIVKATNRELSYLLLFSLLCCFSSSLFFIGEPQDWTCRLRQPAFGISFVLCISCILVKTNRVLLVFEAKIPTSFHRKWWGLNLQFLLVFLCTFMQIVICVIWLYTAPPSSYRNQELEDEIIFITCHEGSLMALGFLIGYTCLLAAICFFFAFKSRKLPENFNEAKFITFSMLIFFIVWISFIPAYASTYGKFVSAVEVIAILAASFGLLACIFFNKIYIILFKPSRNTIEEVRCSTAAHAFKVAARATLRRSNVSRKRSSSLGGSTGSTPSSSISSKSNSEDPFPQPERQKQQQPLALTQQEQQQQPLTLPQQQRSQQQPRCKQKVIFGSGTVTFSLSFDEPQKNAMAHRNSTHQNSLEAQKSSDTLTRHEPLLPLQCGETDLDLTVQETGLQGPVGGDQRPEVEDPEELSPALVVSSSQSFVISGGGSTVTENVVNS
Experiment: cell-based or functional assay

EC50 of agonistic activity on HEK293-CaSR cells, HTRF IP-1 competition method, at a Ca2+ concentration of 1.2 mM: 84.7 µM
EC50 of agonistic activity on HEK293-CaSR cells, HTRF IP-1 competition method, in the absence of Ca2+: 980 µM
B1: polypeptide of Example 1 (active polypeptide SEQ ID NO: 10) (peptide)
peptide 1: CARRRAR
peptide 2: YXFGGC
modifications: D-Tyr 1; Aib (2-aminoisobutyric acid) 2; D-Phe 3; L-Cys 6 disulfide-bonded to D-Cys 1 of the Y chain; free amino and carboxyl termini (H2N-D-Tyr-Aib-D-Phe-Gly-Gly-L-Cys-OH); N-terminal acetyl (Ac); C-terminal amide (NH2); all residues D-amino acids (Ac-D-Cys-D-Ala-D-Arg-D-Arg-D-Arg-D-Ala-D-Arg-NH2); D-Cys 1 disulfide-bonded to L-Cys 6 of the X chain
